Assay [1] deals with T1, human HER4 Extracellular Domain (ECD) (human, UniProt Q15303 26-651).
T1 construct: also called Her4 ECD; HER4-ECD
T1 sequence: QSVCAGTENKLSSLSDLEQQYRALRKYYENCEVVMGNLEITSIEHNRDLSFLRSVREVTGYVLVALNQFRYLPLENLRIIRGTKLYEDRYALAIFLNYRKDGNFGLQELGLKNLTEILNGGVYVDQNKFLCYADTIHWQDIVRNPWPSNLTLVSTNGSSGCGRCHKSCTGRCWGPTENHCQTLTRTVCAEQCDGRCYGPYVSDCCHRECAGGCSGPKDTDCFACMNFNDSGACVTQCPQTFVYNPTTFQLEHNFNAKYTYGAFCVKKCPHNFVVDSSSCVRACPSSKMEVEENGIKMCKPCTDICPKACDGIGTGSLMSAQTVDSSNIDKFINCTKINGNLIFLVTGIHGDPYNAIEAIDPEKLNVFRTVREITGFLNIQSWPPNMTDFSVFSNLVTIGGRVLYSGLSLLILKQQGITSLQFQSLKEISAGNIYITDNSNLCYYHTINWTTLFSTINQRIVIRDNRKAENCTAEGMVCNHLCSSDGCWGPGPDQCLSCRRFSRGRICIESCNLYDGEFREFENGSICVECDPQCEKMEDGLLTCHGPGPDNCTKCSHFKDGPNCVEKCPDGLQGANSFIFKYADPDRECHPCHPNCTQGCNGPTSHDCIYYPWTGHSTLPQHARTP
The experiment in a line: SPR Biacore 3000, 37 C.

In assay [2] the target is T2, HER4 ECD-HRG complex (human, UniProt Q15303 26-651).
T2 construct: HER4 ECD preincubated with a 5-fold molar excess of Heregulin
T2 sequence 1: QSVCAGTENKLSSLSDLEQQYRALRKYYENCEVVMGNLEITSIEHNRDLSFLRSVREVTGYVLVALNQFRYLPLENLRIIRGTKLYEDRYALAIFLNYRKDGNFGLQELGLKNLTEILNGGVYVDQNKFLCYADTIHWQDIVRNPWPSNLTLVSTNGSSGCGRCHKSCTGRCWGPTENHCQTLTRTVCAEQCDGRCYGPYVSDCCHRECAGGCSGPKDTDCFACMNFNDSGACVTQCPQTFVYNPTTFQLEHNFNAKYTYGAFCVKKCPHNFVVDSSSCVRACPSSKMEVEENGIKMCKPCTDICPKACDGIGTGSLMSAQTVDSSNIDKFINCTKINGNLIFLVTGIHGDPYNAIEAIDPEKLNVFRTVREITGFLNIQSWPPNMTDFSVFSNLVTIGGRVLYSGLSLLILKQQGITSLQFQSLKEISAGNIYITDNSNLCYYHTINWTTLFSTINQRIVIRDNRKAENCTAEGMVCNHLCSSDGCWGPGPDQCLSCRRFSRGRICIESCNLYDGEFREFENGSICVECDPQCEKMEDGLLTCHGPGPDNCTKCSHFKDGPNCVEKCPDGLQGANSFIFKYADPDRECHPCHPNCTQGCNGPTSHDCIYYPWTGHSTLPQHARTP
T2 sequence 2: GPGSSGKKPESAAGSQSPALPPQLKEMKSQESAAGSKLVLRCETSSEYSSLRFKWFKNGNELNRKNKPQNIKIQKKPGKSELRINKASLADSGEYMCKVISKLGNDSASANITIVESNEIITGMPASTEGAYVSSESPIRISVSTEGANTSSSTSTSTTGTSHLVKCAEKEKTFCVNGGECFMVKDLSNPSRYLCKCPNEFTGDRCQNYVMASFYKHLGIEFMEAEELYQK
The experiment in a line: SPR Biacore 3000, 37 C.

The target of assay [3] is T3, human HER3 Extracellular Domain (ECD) (human, UniProt P21860 20-643).
T3 construct: human recombinant, 68 kDa; 'closed' conformation without ligand; also called Her3 ECD; Her-3 ECD
The experiment in a line: SPR Biacore 3000, 37 C. (Surface plasmon resonance follows binding to a sensor surface in real time, without labels.)

The target in assay [4] is T4, HER3 ECD-HRG complex (human, UniProt P21860 20-643).
T4 construct: HER3 ECD preincubated with a 3- to 6-fold molar excess of Heregulin ('open' conformation); biotinylated Her3-ECD in the ribosome display; also called HER3-ECD/HRG1β
The experiment in a line: SPR Biacore 3000, 37 C.

In assay [5] the target is T4, HER3 ECD-HRG complex. The experiment in a line: SPR (Biacore B3000, 25 °C), antibody captured by RAM-Fcγ; 90 nM Heregulin*Her-3 ECD complex injected. The protocol: A CMS series sensor was mounted into the system and was normalized in HBS-ET buffer (10 mM HEPES pH 7.4, 150 mM NaCl, 3 mM EDTA, 0.005% w/v Tween 20) according to the manufacturer's instructions. The sample buffer was the system buffer supplemented with 1 mg/ml CMD (Carboxymethyldextran). The system operated at 25° C. 10000 RU RAM-Fcγ (relative units of Fcγ-fragment Rabbit Anti-Mouse IgG/Jackson Laboratories) were immobilized according to the manufacturer's instructions using EDC/NHS chemistry on all flow cells. The sensor was deactivated using 1M ethanolamine. Analytes in solution were injected at 100 μl/min at different concentration steps of 0 nM, 1.1 nM, 3.7 nM, 11.1 nM, 33.1 nM and 90 nM for 2 min. The dissociation was monitored for 5 min. Acidic regeneration of the sensor surface was achieved using three consecutive injections of 10 mM Glycine pH 1.7 at 30 μl/min for 60 sec. Kinetic data were evaluated according to a Langmuir fit.

Assay [6] addresses T3, human HER3 Extracellular Domain (ECD). The experiment in a line: SPR (Biacore) sensorgram overlay; the legend gives 100 nM, antibody * Her-3 ECD interaction without Heregulin; buffer reference (curve 5) stays at 0 RU.
Assay [7] concerns the target T1, human HER4 Extracellular Domain (ECD). The experiment in a line: stated in the epitope binning example.

Results on 2 molecules are retold here after patent US20170233490A1 (Hoffmann-La Roche, published 2017).

B1: humanized variant VH-A/VL-D of anti-HER3 antibody M-05-74 (antibody, V domains shown)
VH: QVQLVQSGAELKKPGASVKVSCRTSGYTLTDYWIHWVRQAPGQGLEWMGYINPYTGYTESNQKFKDRVAMTRDASINTAYMELTSLRSDDTAVYYCARPYYYGDYWGQGTLVTVSS
VL: EIVLTQSPATLSLSPGERATLSCSASSSVSYMHWFQQKPGQPPRLLIYSTSNLASGIPARFSGSGSGTDFTLTISSLEPEDFAVYYCQQRSSYPFTFGGGTKVEIK
notes: also called humanized DIB-74
As for B1, the binding result in assay [1] was “no binding”. In addition, in assay [2], binding was put at a Kd of 211 nM, the MR amounted to 0.8, the off-rate constant (koff) was determined as 0.038 s⁻¹ and the kon was 180000 M⁻¹ s⁻¹. Besides, the t/2diss in assay [2] is 0.3 min. Besides, in assay [3], the affinity, expressed as Kd, was 23 nM; the MR was 0.7; the koff is 0.00044 s⁻¹; the on-rate constant (kon) is 19000 M⁻¹ s⁻¹. This molecule showed a t/2diss in assay [3] of 26 min. In assay [4], this molecule showed a Kd of 10 nM, an MR of 0.8, a dissociation rate constant (koff) of 0.002 s⁻¹ and a kon of 190000 M⁻¹ s⁻¹. The molecule further showed a t/2diss in assay [4] of 6 min.

B2: anti-HER3 antibody M-08-11 (antibody, V domains shown)
VH: QAYLQQSGAELMRPGASVRMSCQASGYTFTSYTIHWLKQTPRQGLEWIGAIYPRNGDFSYNQKFKDKASLTVDTSSSTAYMHLSSLTSEDSAVYFCARTINYGDWFAYWGQGTLVTVSA
VL: DIQMIQSPASLFVSEGETVIITCRASENIYSNLAWYHQKKGKSPQVLVYAAIKLADGVPLRFSGSGSGTQFSLKINSLQSEDFGSYYCQHFWGPPYTFGSGTNLEIK
notes: also called M-011; <Her3> M-08-11
With B2, the binding result in assay [5] is listed as “binds”; in assay [6], “binds”; in assay [7] it was “no binding”.

As usually defined, the Kd is the concentration at which binding is half-saturated. Low values mean higher affinity, high ones lower affinity. The term koff denotes the first-order rate constant of dissociation. As usually defined, the kon is the rate constant with which the complex forms.
